Laboratory results from the domain aggregation screens of Martell et al. (2025).

assay: soluble fraction after stress (log2 fold change); higher = more stays soluble; pooled small domains, quantitative proteomics; details: stress: 75 degC
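Also: 20 min heating vs room temperature control held 20 min.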

Row | Sequence | soluble fraction (log2)
1 | HMRVKLVKKSILASGGENIRVDKFLSNHILTMTRTQIKKLFLDGLVQVNKSFVKPGSILKGNEIITFSIPE | -1.68
2 | HMRVNINVSENILDWVMKRVNPSVLSSKQGELLYAWKEGRKVPTYNQIEKMSKVTGIPLGYFFLEKPPVE | -1.45
3 | HMRVPQWLVDKIAAAGIDTHRSGPALKALAAKAGTPEQLDQAIARAKALRRRTGSTQSLNVGLLGSILEGT | -0.345
4 | HMRVQELARDLGVEADTLIALLRQMGIPVTGARSAINDAQQAKVLAKIERERRAGHSDPAKAIQAVLEEAS | 0.00503
5 | HMRVSNADALIGRRGKANSDIRRGDYGWVAIDGDVWKSKLADDITEDIPMGAIVEVLSRDSIILTVKP | -0.926
6 | HMRWAAIMGREVAAHSTPESLVEGKLHIRTDTTAWATQLRLMSADIVRRLNEVLGEGTVLEVDVRG | -2.22
7 | HMRWSDQKEIVTLSLDHVLVEKGRKTKEYSWREFRTFTAFEIKKSSKDQINLGFKSKGNTVIIGNF | -1.2
8 | HMSAAELFEERQRQYLRGRKSTKNIADNHGTIILRAGETITDQAIDKAKVAGKLVELVMNNE | 0.104
9 | HMSADDSDDRKGIDAWLTQLLANGSVKATEVYSAADAAGYSKDQAKRAKRRLAIEAVREAMDGPWFWRLD | -0.853
10 | HMSAEDQRRASQEAAYRFMQVMAGNEAGFEDAARALFAGDNHRFEVLIQSWPDDVRDHVSLLSVDAFA | -0.651
11 | HMSAEVMLRRLIDENDPSSENARYILAVMLERKKILAPVDVKNEKKSKMLFYEHQKTGEAFIVRDP | -0.0597
12 | HMSAEVSEIEIQRIISYYRNQNGVPDKYNEIFDRIAAQYTDEQLKVISNFLPSDVKQYLSFNNEKYKSLG | -0.904
13 | HMSAGKKSFTNSEFRRFLDALGEGLIVKHKKLGEGVVVEIRGDKAVIQFGDEQRLYELKTLYEYDLLR | -0.628
14 | HMSALAQDGDLVQLQGAGYKSHILRLKAGEVLQTHRGVIQHDAVIGQPWGARLQSHTGSPFYLFQPGLADL | -0.684
15 | HMSALTELPVKTVNGKKYHYYVVKQHETVYALSKRFGITPEQLIKYNPSAEDGLQIDQELLFPATEI | -0.353
16 | HMSANVSMEEALRRTSQAHSLAGKWMRRVLQMAQGRDLIEQMQREAQEAHLPELIGMSVQLEFIRRG | -0.107
17 | HMSAPEGWMNRGDLRDNFRIQYPVTDRIIASYRESHPEWFGTYLSKTSKSLEYFHPDLVAKVREAAN | -0.0761
18 | HMSAPQKWDGSLQDFIRFKQEAKTLMDNIPNKRLALNAILETISDGKMRKRLAKYDGPESALKSLELEFGN | -0.1
19 | HMSAQDLIVRRDSARIEARVTEISPTEIRYKRASNPDGPTYVLPLGDVRSIRYANGEEEVFAPA | -0.223
20 | HMSAQQTFLRDAMRRLNMTRDSFAERIGVRRRALDTWLLPEDSSEYRTMPSIVEKFVGEILGREA | -0.65
21 | HMSARKVTVALHTRDHADRLRRLLKHEGVSADLVAARLSHKLTDHPIEVRVNEDDIPAVLRIIENIEIF | -1.61
22 | HMSASLPAAVEDPDLPYRVGAKLRHARWGEGLLVGIQREGSDVIATVHFASVGRKRLSLQYAHLEE | -2.17
23 | HMSATIMVLRASEDIPVGTEIKDNHLTTVEVGSYGLPEGAINDKDTVLGKVAQTNIIKGDYFFPQKLGG | 0.339
24 | HMSDAQIKASINDLWFKYNLETFAKLNLNVNQGRVLVTGIVQNPEHRLEAIRLVWTVDGVQQVINEIQVAE | -2.33
25 | HMSDDIPVHYRLDVNDAARALKLLTDNGFSAETAESGLNVYMTRLQSAEAARLLVENNIAVYGLTAV | -0.297
26 | HMSDDLIILGYSMLNNALKAFHIDPDSIKKKHWDKLAQDYHLKNKNQILTDIALGKRVNIMVAHQLTTIMD | -0.738

Row | Sequence | soluble fraction (log2)
27 | HMSDDSYLVALAEAYKNATSWDIRRQVLSIMTGVSSYKEISRYIPGLTQYRLSISNLHRLQYGRAAPVP | 0.0264
28 | HMSDEAGKVLQLLRENGGYLPYNDRSDPEDIYAFFSMSKKTFKMTAGNLYKQKKIIFTNTGIKLTE | -3.51
29 | HMSDEVNTDKAFRAIDSTLNRNVKGIAPRDHTLLRNTMITYFKSNDYIDYDTMIQSTLENYKPTELEQDKM | 0.0497
30 | HMSDGHLIKVLEVLDGGEAFLGRTANGGTARFSLGQLADIRRGSVVFVSEDRWEVVPDSAWPEI | -1.1
31 | HMSDGIPDLRNLNFLSPQEGDYLNESDRVFGVTINGDGQAYPLRIVNAHEMVNDTLGGEPISLM | 0.124
32 | HMSDHKNANFTKVVKVAQELLQDEDDKAGITPTLIEEKISAVLAMNRRWAEGLDRAAVADELIRRFSIW | -0.847
33 | HMSDIATLVPGPTDAELAASALRGLDAALDADTPVRLSLGEPGGEVEVPRSVLAALARVLDSFAHGEGVTL | -0.0408
34 | HMSDIISEIESQVMFKLATYEITNATEKMIEALINSEINDRRTLGFPIPNEQGRIFLVRSIQNKLAV | -2.77
35 | HMSDIIVQGNRRLDTDLIITDSQIREIGTDEKSLSLAVKNLYKTGYFENVQIFKDNSVVFINVKENQ | -0.618
36 | HMSDIQKGTQINLVNEPLYVSSKTSIVSTYKTGTYYTWGFEANNRIAITNKLENIGVKGQVTGWINKP | -1.73
37 | HMSDKFNALWIILNKLDKKEKVTARSLMEDLEVSERSVYRYITTLQVAGFPVDYDRAVNSYVFSDGYTLK | -4.11
38 | HMSDKLTLPVQINGVFRYTIEINPSMQKDEIIDLVKNEERTAKYKQDKEIKNVIVVPGKIVNIII | -0.339
39 | HMSDLPLLEHARQNLSDDEFRILELTTIYGYRRVEVAKMLGEPISTINWKYNKLIKKVKTFYGEVYN | -0.998
40 | HMSDLVATKEQVVEAYKYGLGLGLDNSTLKMLLFDIRGEDVADQDKISDGMTVSEIEIWKEGMRTIAEEYL | -0.5
41 | HMSDMIGQNIRRLRTEKQMTQKALADKLFVTAQAVSRWENGEVEPSLSTVTEIARIFNVSADEILGI | -0.228
42 | HMSDPDPAEQALLRQFMTRYAAYRRRGQHPAGAFRTASLEVFGQEPSGDLRDVIVDLESGLV | -0.234
43 | HMSDPELNDNEKKIYDIIFNKKSMDLTELKNLSELSNKQWDKGIKSLSKQDFVKVIKTEEALIVELV | -0.509
44 | HMSDPSAQADALFNEGKTAEAFNVLLRLIEDSPEDQREDYRVRLLDLFRIAGNTPEVKAARRRLSALLM | -0.237
45 | HMSDRFVRIVMNDGTVKLGQMISEDADFIRLKTNNLGELNIPKYLVLDMMDLTRSEYVRLSISNAG | -0.282
46 | HMSDSAFAEMRRELEALRNSNAEYERALSNFFPEAEDKALAAEAFYQNREYDELVAEREEANVIDGLKR | -0.198
47 | HMSDSISLTLNGDLRRFRAHATIADLVRDIGLDPVKVAVERNLEIVSRSTLEDVVLADGDRLEIVHFV | -2.23
48 | HMSDSLVLTGVAYVDGKPVVTLFDKVKKESLVVTDQPNLKGWTLVEATQSSDIKRATAKVNIGGEPVSIRY | -0.0165
49 | HMSDTFENILQRLIKATGRKNASEMANALGLSPQSVYSAKTKGKIPPAWIFAAAERFNASADWIYFGY | -1.5
50 | HMSDTSAIEKIIDEVLSDESSQKAINDIKNGNEKVYGFLVGQVMKKSQGKANPGLVQKMLREKIAK | 0.116
51 | HMSDYKSALQEAVQTNKQSIEYVLIKESGPAHNKTFTFEVRIDNISYGVGTAKSKKEAEQIAAKDALDKLV | -0.0877
52 | HMSDYVLLYSGLNTSDTTFLAYSFQEKGIRYKMPNPDEIEVRVQDVDQARRIAAGAQLGGQVS | -0.536

Row | Sequence | soluble fraction (log2)
53 | HMSEEGTIPDVSGQDEASAQKALENAGFTNIKSEAVYSEEEQGTVIDTNPTAGTKVSKDTEITMQVSKGSE | 0.248
54 | HMSEEKLVFSIPDDIETMRIDKAIALETHLSRAQIAELFKENKILLNSKNSKRSEKVKPGDKISLEFIPKI | -0.0442
55 | HMSEEVKSQPISILDLSTRASNGLKNEGIETIGELVKYSEDELLGLDKFGQNSLKEIKKKLEEIGLTLKEH | 0.00703
56 | HMSEFLTIVRAVYSGLSRRKVAAMHKVSRNTVSLYLRQARDQGWLTLEDLEKLDDLTVSQGVS | -2.08
57 | HMSEFVIPLAKYNKALYTQVSLGMRFRMLFETEDSGVRRYMGTITGIGDLDPIRWKNSHWRNLQV | 0.191
58 | HMSEHLTLVVSDEDAGHRVDQFLVSRLAHMTRSQIQKLIKDGQVTIDTKLVRASTTVHTDNIVTIEFPPAV | -1.21
59 | HMSEKLTLEAANEAAGMRIDKWLAMQLPELSRSRIEALISGGGVVVNGKNPSKSLKLKGGEQIELEIPE | -0.0607
60 | HMSELLIVGSEQDNTRLDRFLADQYEEYTRSFLQKLIDQGNVSINGISVKKSGIKLKENDEIAVTLPEPQ | 0.646
61 | HMSELPLTQKVAIVMVALGEEASGEVMKHLSDYEIEEITQAIAGLKNISVELMDQILEEYEQHLIAG | -0.515
62 | HMSELTKEIGKRIHDFRKSRGLNQEELARLIYKSKATLSKYEKGEIAIDLDTLKQLALALHVRMEQLLPPT | -1.5
63 | HMSENDTILAKFVSVMGNKNLELVIFPDIAYLKGQVSNPEDKTKAETVAQSLLGGKPLVSLIEFE | -0.332
64 | HMSENIQLQKEQLYQLIAQLPEQRQKIFRLHKIDNYSYQEISDFTGLSRKTIANHIYLAHQFILKKVKK | -3.76
65 | HMSENKIMEIVQDLAREKSVILISHRLANVTAADKILYMEQGKIAESGTHEQLMAQNKAYAALFNKQQEL | -0.0206
66 | HMSENLESEFFGIVVITQTLLQKELRDKPMTVELIRKTVEDVMSKHYSDSSVDKAKVEEELIRRFSTW | -1.32
67 | HMSENMSQDLAQWYRLQQALHPNLDAPELWATDLTSQQRTVRDQLIQQWAQEKRDSLWSEISGD | -0.0639
68 | HMSEPFDMAVPLTSGGRRLDQVLAELLPQHSRNRLQGWIRDGLLTLDGVTVTEPKRKLAGGEQLALLLP | -0.169
69 | HMSEPTLESLRAEGAHHYDPARFHYLEVLARRMPGQHAAVQQVLASRLREAVAAYAGRRSLI | -0.157
70 | HMSEQSEALRTGLDQLPINQRTALTLFHLHELNQSEVAKIMNISVGAVESLLFRGRQKMKQLLTSD | -1.39
71 | HMSERIITFGEATREAMLEEMRADERVFVYGEDIAKQGGIFGQFAGMKDEFPERVLDTPISETALVGAG | 0.157
72 | HMSERVVVPDLTGKDLVAAQSELREISLAGREEGPGDKVRRQFPVAGVKVPKDTVVILYTED | 0.0278
73 | HMSESAGKALDILFYLARVEDEVSLARLSKETGMNKATALRYLAVLESWGVVEKRPSGWSLGLSLFELGSK | -2.05
74 | HMSESGTFRAEAADAGRRLDVALAERLRLSRAAAQRLIAAGLVLVEGSPARKRQILHAGETVAWRAAPP | -1.03
75 | HMSESLLTAAGFKTIAATTPEQKRHLEWLHPDQVTAVQLTGQHYYVYPDVAKSQLFVGTPKEYQAYLALRT | -0.16
76 | HMSESLRDLVLSLIPEDGSTIGNRALITRLREDLPDLTDEDYHEVRDQLIAEGVLAKGRGQGGSVARANG | 0.311
